Measurements taken from patent US20080220446A1, “Method for Detecting and/or Removing Protein and/or Peptide Comprising a Cross-Beta Structure From an Aqueous Solution Comprising a Protein” (priority 2005, published 2008).

Tests used:
Assay type in all cases: physicochemical
[1] = Thioflavin T fluorescence of protein solutions
Description: (§1) Fluorescence of ThT—protein/peptide adducts was measured as follows. […] Fluorescence was measured at 485 nm upon excitation at 435 nm. Background signals from buffer, buffer with ThT and protein/peptide solution without ThT were subtracted from corresponding measurements with protein solution incubated with ThT. Regularly, fluorescence of Aβ was used as a positive control, and fluorescence of FP10, a non-amyloid fibrin fragment^16, was used as a negative control. Fluorescence was measured in triplicate on a Hitachi F-4500 fluorescence spectrophotometer (Ltd., Tokyo, Japan).
Formulated protein therapeutics were obtained from the local hospital pharmacy and were used as supplied by the manufacturers. […] Lyophilized therapeutics were dissolved according to the manufacturers recommendations. GH, zinc-insulin, Cealb and gelatin were stored at −20, 4, room temperature, 37 and 65° C. Other protein therapeutics were only kept at 4° C., and assayed for the presence of cross-β structure at shown time points. Enhancement in fluorescence of ThT and Congo red was measured with all formulated protein therapeutics. For this purpose, proteins were diluted to the indicated concentrations. […] Zinc-insulin was diluted tenfold in the activation assay, GH was diluted to a final concentration of 500 μg ml^−1. Activation of factor XII and prekallikrein by the therapeutics was tested in the chromogenic factor XII assay (see above). […] After coating, plates were blocked with Blocking Reagent (Roche Diagnostics, Almere, The Netherlands).
ThT fluorescence of β2GPI was measured as follows. […] CL vesicles were prepared according to an established procedure. Briefly, CL was dried under a stream of nitrogen. The lipids were resuspended to a concentration of 10 mg ml^−1 in 25 mM Tris-HCl, pH 7.3, 150 mM NaCl by vigorous agitation, using a vortex. In the ThT fluorescence assay, fluorescence of β2GPI in buffer, of CL or DXS500k in buffer, of buffer and ThT alone, and of β2GPI-CL adducts and β2GPI-DXS500k adducts, with or without ThT, was recorded as described above (section ThT fluorescence). In addition, TEM images were recorded with CL, β2GPI from human plasma, with or without CL, and with recombinant β2GPI, as described^5.
To prepare structurally altered ovalbumin (OVA) with amyloid cross-β structures, purified OVA (Sigma, A-7641, lot 071k7094) was heated to 85° C. One mg ml^−1 OVA in 67 mM NaPi buffer pH 7.0, 100 mM NaCl, was heated for two cycles in PCR cups in a PTC-200 thermal cycler (MJ Research, Inc., Waltham, Mass., USA). In each cycle, OVA was heated from 30 to 85° C. at a rate of 5° C./min. Native OVA (nOVA) and heat-denatured OVA (dOVA) were tested in the ThT fluorescence assay and in the Plg-activation assay. In the fluorescence assay and in the Plg-activation assay, 25 and 100 μg ml^−1 nOVA and dOVA were tested, respectively. TEM images of nOVA and dOVA were taken to check for the presence of large aggregates.
MSA (#126674, Calbiochem) was dissolved in 8 M urea, 100 mM Tris-HCl pH 8.2, at 10 mg ml^−1 final concentration. Dithiothreitol (DTT) was added to a final concentration of 10 mM. Air was replaced by N2 and the solution was incubated for 2 h at room temperature. Then, the solution was transferred to ice and iodoacetamide was added from a 1 M stock to a final concentration of 20 mM. […] In the ThT-fluorescence assay 25 μg ml^−1 nMSA and alkyl-MSA were tested, and in the Plg-activation assay 100 μg ml^−1 was tested. The presence of aggregates or fibrils was analyzed using TEM. […]

[2] = ThT fluorescence enhancement by biopharmaceuticals; conditions: +/− SD; five μL of protein therapeutic
Description: as §1
β2-GPI was reduced and alkylated as follows. Sixhundredforty μl of β2-GPI stock was mixed with 640 μl of 8 M Urea (cooled solution) in 0.1 M Tris pH-8.2. The solution was degassed with N2 gas for approximately 6 minutes. From a 1 M DTT stock 12.8 μl was added to the solution, mixed and incubated for 3 hours at room temperature. A 1 M Iodoacetamide (Sigma; I-6125) was prepared, of which 25.6 μl was added to the β2-GPI reaction mixture. The solution was subsequently dialysed against PBS. […] Signals obtained with alkyl-β2gpi are compared with those obtained with native β2gpi starting material and with positive control acid/heat denatured amyloid-like misfolded γ-globulins.
(§2) Protein therapeutics were obtained from the local hospital pharmacy and analyzed within the expiry limits as stated by the manufacturers.
(§3) Fluorescence of Thioflavin T (ThT; Sigma T-3516, St. Louis, Mo., USA) and Congo red (CR; Aldrich Chemical Company Inc., Milwaukee, Wis., USA) was measured on a Hitachi F-4500 spectrophotometer at an excitation wavelength of 435 nm and emission wavelength of 485 nm for ThT and an excitation wavelength of 550 nm and emission wavelength of 595 nm for Congo red. […] Fluorescence was measured in triplicate. Background fluorescence of both protein in buffer and dye-solution were subtracted from the total fluorescence signal. Five μg/mL fibrillar amyloid-β(1-40) E22Q (Peptide Synthesis Facility of the Dutch Cancer Institute NKI, Amsterdam, The Netherlands) was used as a positive control in all fluorescence assays.

[3] = Congo red fluorescence enhancement by biopharmaceuticals; conditions: +/− SD; five μL of protein therapeutic
Description: Background signals from buffer, buffer with Congo red and protein/peptide solution without Congo red were subtracted from corresponding measurements with protein solution incubated with Congo red. Fluorescence was measured in triplicate on a Hitachi F-4500 fluorescence spectrophotometer (Ltd., Tokyo, Japan).
as §2, §3

[4] = Stability testing of biopharmaceuticals under denaturing conditions; conditions: after exposure to harsh denaturing conditions (low pH or heat)
Description: For this purpose, 5 mg/mL Glucagon (Glucagen; Novo Nordisk Farma B. V., Alphen aan de Rijn, The Netherlands) was incubated at 37° C. in 0.01 M HCl for 48 hours. One mg/mL Etanercept (Enbrel; Wyeth Pharmaceuticals B. V., Hoofddorp, The Netherlands) in 67 mM sodium phosphate buffer, 100 mM NaCl pH 7.0 was gradually heated from 30° C. to 85° C. over a period of 12 minutes and afterwards cooled to 4° C. for 5 minutes, this treatment was repeated 4 times. Abciximab (Reopro; Centocor B. V., Leiden, The Netherlands) and Infliximab (Remicade; Schering-Plough B. V., Utrecht, The Netherlands) were incubated at 65° C. for 16 and 72 hours, respectively.

Substance	enhancement of ThT fluorescence ([1]; after storage at 65° C.)	Fluorescence ThT [2]	Fluorescence CR [3]	amyloid-like properties (ThT-fluorescence and tPA activation) [4]	enhancement of ThT fluorescence ([1]; stored at 4° C.)
Abciximab: abciximab, an inhibitor of blood platelet aggregation (ReoPro, Centocor)	enhanced ThT fluorescence	8 +/− 8 a.u.	25 +/− 1 a.u.	amyloid-like properties are adopted	
Somatropin: human growth hormone (Genotropin, Pharmacia)		1317 +/− 10 a.u.	429 +/− 2 a.u.		enhance fluorescence of ThT
